According to patent publication US20240279357A1 (THERINI BIO, published 2024):
Numbering of substitutions follows the chain as printed.

T1: plasminogen-depleted human Fibrinogen (EMD/Calbiochem) (human, UniProt P02671 20-629; P02675 31-491; P02679 27-437, limits assumed)
T1 construct: Bought protein, IgG-depleted, coated on ELISA plates; also called FGN
T1 sequence (looked up) 1: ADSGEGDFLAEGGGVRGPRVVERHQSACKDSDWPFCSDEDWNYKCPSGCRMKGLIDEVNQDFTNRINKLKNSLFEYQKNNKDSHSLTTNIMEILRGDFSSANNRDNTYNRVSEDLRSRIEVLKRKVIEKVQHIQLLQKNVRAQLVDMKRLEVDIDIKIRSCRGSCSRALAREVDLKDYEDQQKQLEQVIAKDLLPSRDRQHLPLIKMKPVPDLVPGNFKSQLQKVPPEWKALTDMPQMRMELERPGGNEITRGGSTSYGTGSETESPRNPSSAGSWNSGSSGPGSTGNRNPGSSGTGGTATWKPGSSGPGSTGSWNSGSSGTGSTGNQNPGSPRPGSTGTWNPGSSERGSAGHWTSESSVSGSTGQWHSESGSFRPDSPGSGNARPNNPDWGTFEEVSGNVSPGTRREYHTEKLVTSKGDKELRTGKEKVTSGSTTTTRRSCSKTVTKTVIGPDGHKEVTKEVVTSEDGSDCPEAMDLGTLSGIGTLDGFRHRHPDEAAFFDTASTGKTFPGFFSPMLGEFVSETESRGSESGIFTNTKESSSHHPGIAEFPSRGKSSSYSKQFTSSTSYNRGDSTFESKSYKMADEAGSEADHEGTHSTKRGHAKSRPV
T1 sequence (looked up) 2: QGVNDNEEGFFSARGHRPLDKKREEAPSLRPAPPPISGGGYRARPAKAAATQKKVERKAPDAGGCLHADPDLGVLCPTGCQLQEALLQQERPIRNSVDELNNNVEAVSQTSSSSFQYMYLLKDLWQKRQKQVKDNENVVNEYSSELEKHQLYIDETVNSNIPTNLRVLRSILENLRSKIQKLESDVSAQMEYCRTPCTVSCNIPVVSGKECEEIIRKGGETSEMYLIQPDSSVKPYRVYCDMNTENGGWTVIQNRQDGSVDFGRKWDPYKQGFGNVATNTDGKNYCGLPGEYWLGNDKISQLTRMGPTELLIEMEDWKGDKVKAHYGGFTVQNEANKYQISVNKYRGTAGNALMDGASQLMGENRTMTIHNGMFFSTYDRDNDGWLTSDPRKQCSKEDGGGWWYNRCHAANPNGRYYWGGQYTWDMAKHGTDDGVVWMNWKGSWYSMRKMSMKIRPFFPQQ
T1 sequence (looked up) 3: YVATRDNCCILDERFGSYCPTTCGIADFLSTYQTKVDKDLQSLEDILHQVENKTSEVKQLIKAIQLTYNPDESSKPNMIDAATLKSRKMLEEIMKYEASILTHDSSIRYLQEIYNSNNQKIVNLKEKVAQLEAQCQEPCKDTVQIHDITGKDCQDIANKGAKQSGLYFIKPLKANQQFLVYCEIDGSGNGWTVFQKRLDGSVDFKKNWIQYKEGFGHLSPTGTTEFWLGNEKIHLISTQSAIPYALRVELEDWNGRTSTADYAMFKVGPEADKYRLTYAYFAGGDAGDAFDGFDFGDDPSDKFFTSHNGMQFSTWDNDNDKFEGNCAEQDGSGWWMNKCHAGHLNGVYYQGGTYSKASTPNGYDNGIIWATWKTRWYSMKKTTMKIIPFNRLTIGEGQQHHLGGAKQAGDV

B1: humanized VH5/Vκ2 antibody (antibody, IgG1, V domains shown)
VH: QVQLVQSGAEVKKPGSSVKVSCKASGYTFTSYWIHWVRQAPGQGLEWIGLIDPSDSYTNYNQKFRGRVTITRDTSTSTAYMELSSLRSEDTAVYYCASSDPTGCWGQGTTVTVSS
VL: DIVMTQAAFSNPVTPGTPASISCRSSKSLLHSSGITYLSWYLQKPGQSPQLLIYQMSNLASGVPDRFSSSGSGTDFTLKISRVEAEDVGVYYCAQNLELPLTFGQGTKLEIK
notes: IgG1; also called VH5/VK2; VH5Vk2
B2: humanized VH4/Vκ1 antibody (antibody, IgG1, V domains shown)
VH: B1 VH with R72V
VL: B1 VL with V13I, K79R
notes: Expressed as IgG1; also called VH4/VK1; VH4Vk1
B3: humanized VH6/Vκ2 antibody (antibody, IgG1, V domains shown)
VH: B1 VH with R65Q
VL: B1 VL
notes: Expressed as IgG1; also called VH6/VK2; VH6Vk2
B4: humanized VH4/Vκ2 antibody (antibody, IgG1, V domains shown)
VH: B1 VH with R72V
VL: B1 VL
notes: IgG1; also called VH4/VK2; VH4Vk2

Molecular target: T1, plasminogen-depleted human Fibrinogen …
Test: ELISA on coated human fibrinogen; curve did not reach saturation
Protocol: The humanized antibodies affinity for fibrinogen, fibrin and P2 peptide were assessed by Enzyme-linked immunosorbent assays (ELISA)s (FIGS. 7-16). ELISAs for fibrinogen binding were performed using plasminogen-depleted human Fibrinogen (EMD/Calbiochem). […] IgG1-depleted Fibrinogen (FGN) in 20 mM HEPES/Saline buffer was added to each well of half of a 96-well Nunc Maxisorp™ ELISA plate. The ELISAs for fibrin binding were prepared by adding 50 mL of 20 mM HEPES/Saline buffer containing 14 mM CaCl₂, and 2 units thrombin to each well of the second half of the Nunc Maxisorp™ ELISA plate. 50 mL of 20 mg fibrinogen in 20 mM HEPES/Saline buffer were then added to a total volume of 100 mL. Plates were placed in a 37° C. incubator for 1 hour to allow fibrinogen to clot into fibrin and subsequently placed overnight into a plate dryer at 37° C. overnight. The ELISAs for P2 peptide were prepared by addition of […] of 30 mM P2 peptide in 20 mM HEPES/Saline buffer to each well of a 96-well Nunc Maxisorp™ ELISA plate. Plates were transferred to the plate dryer and dried overnight at 37° C. All ELISAs were preformed using Nunc MaxiSorp 96-well ELISA plates. Blocking was performed using 100 mL 5% BSA in DPBS are incubated at RT for 1 hour. Plates were washed 5× in DPBS containing 0.05% Tween-20 (EL406 was used for the addition of wash buffer only). 50 mL of primary antibodies was diluted in 0.5% BSA in DPBS, and the primary antibodies were added to the plates and incubated for 2 hours at 37° C. Plates were washed 5× in DPBS/Tween. 100 mL secondary antibodies were diluted in 0.5% BSA in DPBS. The secondary antibodies were then added to the plates and incubated for 1 hour at RT. Afterwards, plates were washed 5× in DPBS/Tween. 100 mL of TMB/E substrate solution was added, and the reaction was stopped after 5 minutes with 1N HCl.

Binder	EC50
B1	~2.2 µM
B2	~3.2 µM
B3	~3.6 µM
B4	~3.8 µM
